Assay results taken from IntAct's records for PubMed 24704786.

B1: Interferon alpha/beta receptor 1 (Homo sapiens), P17181-1 (parent)
chain: MMVVLLGATTLVLVAVAPWVLSAAAGGKNLKSPQKVEVDIIDDNFILRWNRSDESVGNVTFSFDYQKTGMDNWIKLSGCQNITSTKCNFSSLKLNVYEEIKLRIRAEKENTSSWYEVDSFTPFRKAQIGPPEVHLEAEDKAIVIHISPGTKDSVMWALDGLSFTYSLVIWKNSSGVEERIENIYSRHKIYKLSPETTYCLKVKAALLTSWKIGVYSPVHCIKTTVENELPPPENIEVSVQNQNYVLKWDYTYANMTFQVQWLHAFLKRNPGNHLYKWKQIPDCENVKTTQCVFPQNVFQKGIYLLRVQASDGNNTSFWSEEIKFDTEIQAFLLPPVFNIRSLSDSFHIYIGAPKQSGNTPVIQDYPLIYEIIFWENTSNAERKIIEKKTDVTVPNLKPLTVYCVKARAHTMDEKLNKSSVFSDAVCEKTKPGNTSKIWLIVGICIALFALPFVIYAAKVFLRCINYVFFPSLKPSSSIDEYFSEQPLKNLLLSTSEEQIEKCFIIENISTIATVEETNQTDEDHKKYSSQTSQDSGNYSNEDESESKTSEELQQDFV

Variants of: B1
Conditions: with tyk2_human TYK2, P29597
Sequence of tyk2_human TYK2, P29597 (P29597 whole entry): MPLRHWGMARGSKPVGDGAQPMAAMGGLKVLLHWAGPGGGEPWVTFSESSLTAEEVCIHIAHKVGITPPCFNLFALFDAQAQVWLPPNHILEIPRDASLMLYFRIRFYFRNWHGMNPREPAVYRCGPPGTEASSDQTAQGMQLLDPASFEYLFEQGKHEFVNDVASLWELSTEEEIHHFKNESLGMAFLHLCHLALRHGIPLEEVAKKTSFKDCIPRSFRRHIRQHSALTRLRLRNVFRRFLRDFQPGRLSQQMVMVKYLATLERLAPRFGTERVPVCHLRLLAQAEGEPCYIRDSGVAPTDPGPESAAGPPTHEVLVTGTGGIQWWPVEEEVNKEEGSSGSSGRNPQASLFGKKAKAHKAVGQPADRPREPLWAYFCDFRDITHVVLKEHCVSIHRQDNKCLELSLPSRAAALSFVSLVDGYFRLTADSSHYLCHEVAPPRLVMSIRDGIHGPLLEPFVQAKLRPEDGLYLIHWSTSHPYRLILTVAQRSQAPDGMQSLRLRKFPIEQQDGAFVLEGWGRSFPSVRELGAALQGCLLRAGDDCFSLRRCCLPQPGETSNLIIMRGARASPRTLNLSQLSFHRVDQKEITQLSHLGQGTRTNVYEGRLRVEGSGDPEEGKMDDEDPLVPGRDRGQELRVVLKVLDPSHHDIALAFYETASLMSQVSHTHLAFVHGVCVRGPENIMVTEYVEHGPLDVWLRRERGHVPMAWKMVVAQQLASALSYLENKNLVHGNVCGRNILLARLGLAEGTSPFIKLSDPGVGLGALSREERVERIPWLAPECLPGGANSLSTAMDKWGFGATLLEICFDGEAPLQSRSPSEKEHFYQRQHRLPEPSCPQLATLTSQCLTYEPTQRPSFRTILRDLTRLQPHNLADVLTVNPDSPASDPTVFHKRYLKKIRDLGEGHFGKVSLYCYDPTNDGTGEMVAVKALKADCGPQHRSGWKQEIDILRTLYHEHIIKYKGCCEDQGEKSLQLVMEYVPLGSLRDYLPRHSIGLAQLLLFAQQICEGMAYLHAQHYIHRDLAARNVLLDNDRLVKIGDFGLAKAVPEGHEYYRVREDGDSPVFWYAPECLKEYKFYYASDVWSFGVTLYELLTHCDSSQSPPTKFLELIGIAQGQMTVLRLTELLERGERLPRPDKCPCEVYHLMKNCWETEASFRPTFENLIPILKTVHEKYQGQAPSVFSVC

Row | effect of a mutation on the interaction | Variant
1 | disrupting interaction strength | E497A
